According to patent publication US20220331457A1 (TELIX INTERNATIONAL, published 2022):
Residue numbers refer to the chain shown, from its start. Numbers in names are those of the source.

B1: Girentuximab humanised VH4/Vκ3 IgG1 (antibody)
heavy: not shown
light: DIQMTQSPSSLSASVGDRVTITCKASQNVVSAVAWYQQKPGQAPRLLIYSASNRYTGVPDRFSGSGSGTDFTLTISSLQAEDLADYFCQQYSNYPWTFGGGTKVEIKRTVAAPSVFIFPPSDEQLKSGTASVVCLLNNFYPREAKVQWKVDNALQSGNSQESVTEQDSKDSTYSLSSTLTLSKADYEKHKVYACEVTHQGLSSPVTKSFNRGEC
B2: Girentuximab humanised VH3/Vκ4 IgG1 (antibody)
heavy: not shown
light: B1 light with F87Y
B3: Girentuximab humanised VH3/Vκ4 IgG1 (H310A, H435Q) (antibody)
heavy: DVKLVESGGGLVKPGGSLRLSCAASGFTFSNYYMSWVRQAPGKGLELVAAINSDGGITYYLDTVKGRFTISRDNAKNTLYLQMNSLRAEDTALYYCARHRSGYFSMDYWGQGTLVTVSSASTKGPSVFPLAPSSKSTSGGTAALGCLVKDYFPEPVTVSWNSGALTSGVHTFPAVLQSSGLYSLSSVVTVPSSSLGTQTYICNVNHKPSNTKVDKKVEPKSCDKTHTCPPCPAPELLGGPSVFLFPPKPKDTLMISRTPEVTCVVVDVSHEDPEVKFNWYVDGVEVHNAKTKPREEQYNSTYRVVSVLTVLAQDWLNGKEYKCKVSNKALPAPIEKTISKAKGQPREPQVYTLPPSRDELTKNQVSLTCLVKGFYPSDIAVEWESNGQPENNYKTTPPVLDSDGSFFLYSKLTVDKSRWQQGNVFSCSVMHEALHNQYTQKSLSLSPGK
light: B1 light with F87Y
B4: Girentuximab humanised VH4/Vκ3 IgG1 (H310A, H435Q) (antibody)
heavy: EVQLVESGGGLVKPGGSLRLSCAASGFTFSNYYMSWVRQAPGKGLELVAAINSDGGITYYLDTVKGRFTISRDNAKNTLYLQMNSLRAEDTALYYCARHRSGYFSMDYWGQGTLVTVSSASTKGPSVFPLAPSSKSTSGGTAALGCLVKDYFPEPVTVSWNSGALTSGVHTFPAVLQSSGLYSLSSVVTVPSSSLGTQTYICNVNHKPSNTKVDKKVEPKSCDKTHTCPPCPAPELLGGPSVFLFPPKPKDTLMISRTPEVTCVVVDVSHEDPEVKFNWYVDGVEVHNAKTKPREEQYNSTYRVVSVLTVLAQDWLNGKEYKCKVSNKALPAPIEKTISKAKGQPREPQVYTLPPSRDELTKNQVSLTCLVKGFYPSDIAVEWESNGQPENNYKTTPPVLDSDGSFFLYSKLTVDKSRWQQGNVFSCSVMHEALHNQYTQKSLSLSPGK
light: B1 light
B5: Girentuximab humanised VH4/Vκ4 IgG1 (antibody)
heavy: not shown
light: B1 light with F87Y
B6: Girentuximab humanised VH4/Vκ4 IgG1 (H310A, H435Q) (antibody)
heavy: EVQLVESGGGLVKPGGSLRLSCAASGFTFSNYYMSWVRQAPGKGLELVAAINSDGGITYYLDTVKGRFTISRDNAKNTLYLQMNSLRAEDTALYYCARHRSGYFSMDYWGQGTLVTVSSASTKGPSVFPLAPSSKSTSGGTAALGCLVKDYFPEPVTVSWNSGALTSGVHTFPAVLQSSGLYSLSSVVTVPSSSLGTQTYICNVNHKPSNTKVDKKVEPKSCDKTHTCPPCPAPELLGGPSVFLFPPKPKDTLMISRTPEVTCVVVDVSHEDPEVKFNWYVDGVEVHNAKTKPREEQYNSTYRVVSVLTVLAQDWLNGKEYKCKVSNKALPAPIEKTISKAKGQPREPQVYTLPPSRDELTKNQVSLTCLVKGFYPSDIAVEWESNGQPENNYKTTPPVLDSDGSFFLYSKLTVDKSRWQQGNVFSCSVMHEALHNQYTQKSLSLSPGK
light: B1 light with F87Y
B7: Girentuximab humanised VH4/Vκ4 IgG4 (S228P, L235E, H310A, H435Q) (antibody)
heavy: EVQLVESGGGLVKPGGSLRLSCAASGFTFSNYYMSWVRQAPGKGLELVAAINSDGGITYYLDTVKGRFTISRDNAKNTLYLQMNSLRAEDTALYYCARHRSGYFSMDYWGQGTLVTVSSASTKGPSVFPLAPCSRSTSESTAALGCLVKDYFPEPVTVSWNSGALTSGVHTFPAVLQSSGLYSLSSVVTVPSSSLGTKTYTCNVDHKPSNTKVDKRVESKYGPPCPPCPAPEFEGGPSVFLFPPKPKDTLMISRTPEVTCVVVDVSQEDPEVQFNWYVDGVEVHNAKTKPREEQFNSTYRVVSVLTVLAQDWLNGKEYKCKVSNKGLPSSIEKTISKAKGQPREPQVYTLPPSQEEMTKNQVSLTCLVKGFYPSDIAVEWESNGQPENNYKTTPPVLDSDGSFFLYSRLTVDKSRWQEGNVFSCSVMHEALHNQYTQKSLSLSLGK
light: B1 light with F87Y
B8: Girentuximab humanised VH3/Vκ4 IgG4 (S228P, L235E, H310A, H435Q) (antibody)
heavy: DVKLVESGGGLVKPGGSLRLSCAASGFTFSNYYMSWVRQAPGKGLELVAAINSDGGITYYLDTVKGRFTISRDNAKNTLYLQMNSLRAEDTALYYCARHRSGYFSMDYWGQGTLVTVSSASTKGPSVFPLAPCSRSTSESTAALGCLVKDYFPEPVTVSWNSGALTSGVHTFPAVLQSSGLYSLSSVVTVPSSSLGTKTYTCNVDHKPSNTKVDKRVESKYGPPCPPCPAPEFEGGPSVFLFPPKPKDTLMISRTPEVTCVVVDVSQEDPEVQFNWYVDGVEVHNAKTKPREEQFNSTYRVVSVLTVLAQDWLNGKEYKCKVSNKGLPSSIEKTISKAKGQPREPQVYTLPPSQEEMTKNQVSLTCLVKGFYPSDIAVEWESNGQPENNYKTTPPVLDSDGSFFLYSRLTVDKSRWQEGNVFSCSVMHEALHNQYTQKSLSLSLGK
light: B1 light with F87Y
B9: Girentuximab humanised VH4/Vκ3 IgG4 (S228P, L235E, H310A, H435Q) (antibody)
heavy: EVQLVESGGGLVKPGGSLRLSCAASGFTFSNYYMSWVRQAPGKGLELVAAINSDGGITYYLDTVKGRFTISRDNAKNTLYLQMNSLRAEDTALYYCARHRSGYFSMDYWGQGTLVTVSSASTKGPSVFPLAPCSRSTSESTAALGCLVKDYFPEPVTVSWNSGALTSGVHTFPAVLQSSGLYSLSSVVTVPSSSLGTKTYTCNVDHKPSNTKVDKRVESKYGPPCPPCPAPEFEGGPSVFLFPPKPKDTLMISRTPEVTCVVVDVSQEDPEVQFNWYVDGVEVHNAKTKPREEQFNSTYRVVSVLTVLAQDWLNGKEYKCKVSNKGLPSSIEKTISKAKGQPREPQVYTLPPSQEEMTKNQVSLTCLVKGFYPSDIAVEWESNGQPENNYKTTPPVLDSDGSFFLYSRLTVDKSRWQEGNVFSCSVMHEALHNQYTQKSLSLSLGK
light: B1 light
B10: Girentuximab humanised VH3/Vκ2 IgG1 (antibody)
heavy: not shown
light: B1 light with Q3V, S63T
B11: Girentuximab humanised VH3/Vκ3 IgG1 (antibody)
heavy: not shown
light: B1 light
B12: Girentuximab humanised VH4/Vκ2 IgG1 (antibody)
heavy: not shown
light: B1 light with Q3V, S63T
B13: Chimeric Girentuximab (VH0/Vκ0) IgG1 (H310A, H435Q) (antibody)
heavy: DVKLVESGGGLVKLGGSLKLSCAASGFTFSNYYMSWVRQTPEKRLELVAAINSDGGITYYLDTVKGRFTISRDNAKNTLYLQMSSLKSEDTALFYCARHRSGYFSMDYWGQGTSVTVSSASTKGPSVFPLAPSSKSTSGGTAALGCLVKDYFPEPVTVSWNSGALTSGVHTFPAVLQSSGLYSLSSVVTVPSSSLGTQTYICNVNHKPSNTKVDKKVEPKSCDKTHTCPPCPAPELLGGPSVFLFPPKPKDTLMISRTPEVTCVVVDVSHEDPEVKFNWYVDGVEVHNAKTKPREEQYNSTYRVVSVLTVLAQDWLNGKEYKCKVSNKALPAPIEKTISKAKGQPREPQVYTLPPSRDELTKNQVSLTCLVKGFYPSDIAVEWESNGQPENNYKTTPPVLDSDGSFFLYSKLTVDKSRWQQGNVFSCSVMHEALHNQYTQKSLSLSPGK
light: DIVMTQSQRFMSTTVGDRVSITCKASQNVVSAVAWYQQKPGQSPKLLIYSASNRYTGVPDRFTGSGSGTDFTLTISNMQSEDLADFFCQQYSNYPWTFGGGTKLEIKRTVAAPSVFIFPPSDEQLKSGTASVVCLLNNFYPREAKVQWKVDNALQSGNSQESVTEQDSKDSTYSLSSTLTLSKADYEKHKVYACEVTHQGLSSPVTKSFNRGEC
notes: Chimeric antibody on the FcRn-null IgG1 backbone; also called chimeric IgG1 (H310A, H435Q)
B14: Chimeric Girentuximab (VH0/Vκ0) IgG4 (S228P, L235E, H310A, H435Q) (antibody)
heavy: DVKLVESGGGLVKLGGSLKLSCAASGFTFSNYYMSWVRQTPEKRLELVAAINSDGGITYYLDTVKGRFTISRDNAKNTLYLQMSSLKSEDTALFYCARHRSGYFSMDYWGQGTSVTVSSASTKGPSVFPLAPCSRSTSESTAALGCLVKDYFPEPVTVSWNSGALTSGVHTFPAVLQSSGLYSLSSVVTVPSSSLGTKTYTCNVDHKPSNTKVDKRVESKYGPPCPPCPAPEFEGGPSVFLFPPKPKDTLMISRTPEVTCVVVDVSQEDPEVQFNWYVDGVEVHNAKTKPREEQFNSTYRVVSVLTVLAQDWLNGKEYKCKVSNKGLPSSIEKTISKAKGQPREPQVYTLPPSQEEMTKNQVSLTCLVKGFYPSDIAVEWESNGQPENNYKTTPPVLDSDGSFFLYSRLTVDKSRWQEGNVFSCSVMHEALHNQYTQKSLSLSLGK
light: B13 light
notes: Chimeric antibody on the FcRn- and FcRγ-null IgG4 backbone; also called chimeric IgG4 (S228P, L235E, H310A, H435Q)
B15: Girentuximab humanised VH1/Vκ1 IgG1 (antibody, V domains shown)
VH: DVKLVESGGGLVKPGGSLRLSCAASGFTFSNYYMSWVRQAPGKGLELVAAINSDGGITYYLDTVKGRFTISRDNAKNTLYLQMSSLKSEDTALYYCARHRSGYFSMDYWGQGTSVTVSS
VL: DIVMTQSPSFLSASVGDRVTITCKASQNVVSAVAWYQQKPGQAPKLLIYSASNRYTGVPDRFTGSGSGTDFTLTISSLQSEDLADYFCQQYSNYPWTFGGGTKVEIKR
B16: Girentuximab humanised VH1/Vκ2 IgG1 (antibody, V domains shown)
VH: B15 VH
VL: B15 VL with F10S, K45R, S80A
B17: Girentuximab humanised VH1/Vκ3 IgG1 (antibody, V domains shown)
VH: B15 VH
VL: B15 VL with V3Q, F10S, K45R, T63S, S80A
B18: Girentuximab humanised VH1/Vκ4 IgG1 (antibody, V domains shown)
VH: B15 VH
VL: B15 VL with V3Q, F10S, K45R, T63S, S80A, F87Y
B19: Girentuximab humanised VH1/Vκ5 IgG1 (antibody, V domains shown)
VH: B15 VH
VL: B15 VL with V3Q, F10S, K45R, L46R, T63S, S80A, F87Y
B20: Girentuximab humanised VH3/Vκ1 IgG1 (antibody)
heavy: not shown
light: B1 light with Q3V, S10F, R45K, S63T, A80S
B21: Girentuximab humanised VH3/Vκ5 IgG1 (antibody)
heavy: not shown
light: B1 light with L46R, F87Y
B22: Girentuximab humanised VH4/Vκ1 IgG1 (antibody)
heavy: not shown
light: B1 light with Q3V, S10F, R45K, S63T, A80S
B23: Girentuximab humanised VH4/Vκ5 IgG1 (antibody)
heavy: not shown
light: B1 light with L46R, F87Y
B24: Girentuximab humanised VH5/Vκ1 IgG1 (antibody, V domains shown)
VH: B15 VH with D1E, K3Q, L47W, S84N, K87R, S88A, S114L
VL: B15 VL
B25: Girentuximab humanised VH5/Vκ2 IgG1 (antibody, V domains shown)
VH: B15 VH with D1E, K3Q, L47W, S84N, K87R, S88A, S114L
VL: B15 VL with F10S, K45R, S80A
B26: Girentuximab humanised VH5/Vκ3 IgG1 (antibody, V domains shown)
VH: B15 VH with D1E, K3Q, L47W, S84N, K87R, S88A, S114L
VL: B15 VL with V3Q, F10S, K45R, T63S, S80A
B27: Girentuximab humanised VH5/Vκ4 IgG1 (antibody, V domains shown)
VH: B15 VH with D1E, K3Q, L47W, S84N, K87R, S88A, S114L
VL: B15 VL with V3Q, F10S, K45R, T63S, S80A, F87Y
B28: Girentuximab humanised VH5/Vκ5 IgG1 (antibody, V domains shown)
VH: B15 VH with D1E, K3Q, L47W, S84N, K87R, S88A, S114L
VL: B15 VL with V3Q, F10S, K45R, L46R, T63S, S80A, F87Y

target: T1, human carbonic anhydrase IX (CAIX) (human, UniProt Q16790 38-414); assay: Biacore multicycle kinetic analysis (conclusion of Example 1)
Experimental: (§1) The purified antibodies were diluted to a concentration of 1 μg/ml in HBS-P+. […] Following capture, the surface was allowed to stabilise. Kinetic data was obtained using a flow rate of 30 μl/min to minimise any potential mass transfer effects. For the kinetics analysis, carbonic anhydrase IX (CAIX) was used. Multiple repeats of the blank (CAIX) and a repeat of a single concentration of the analyte were programmed into the kinetic run in order to check the stability of both the surface and analyte over the kinetic cycles. For kinetic analysis, a two-fold dilution range was selected from 50 nM to 0.078 nM CAIX. The association phase of CAIX was monitored for 280 seconds and the dissociation phase was monitored for 300 seconds. Regeneration of the Protein G surface was conducted using an injection of 10 mM glycine-HCL pH 1.5 followed by an injection of 10 mM glycine-HCL pH 1.5 containing 0.5% P20. The signal from the reference channel Fc1 was subtracted from that of Fc2, Fc3 and Fc4 to correct for differences in non-specific binding to a reference surface, and a global Rmax parameter was used in the 1-to-1 binding model. The relative KD was calculated by dividing the KD of the humanised variants by that of the chimeric antibody on the same chip.

Binder	binding relative to VH0/Vκ0 with the same IgG backbone [fold]
B1	≤ 2
B2	≤ 2
B3	≤ 2
B4	≤ 2
B5	≤ 2
B6	≤ 2
B7	≤ 2
B8	≤ 2
B9	≤ 2

target: T1, human carbonic anhydrase IX (CAIX); assay: Biacore multicycle analysis and competition ELISA (conclusion of Example 1)

Binder	binding relative to the IgG1 chimeric antibody [fold]
B1	≤ 2
B10	≤ 2
B11	≤ 2
B2	≤ 2
B12	≤ 2
B5	≤ 2

target: T1, human carbonic anhydrase IX (CAIX); assay: competition ELISA on coated CAIX; competitor: biotinylated chimeric Girentuximab IgG1
Experimental: CAIX was diluted in 1×PBS to 0.5 μg/ml and 100 μl/well was coated overnight at 4° C. on a 96-well ELISA plate. The following day, the plate was washed 3× with 1×PBS/0.05% Tween (PBST) and blocked with 200 μl of 2% BSA/PBS for one hour at room temperature.
After washing the plate 3× with PBS-T, 100 μl of chimeric/test antibody mix was added to the ELISA plate.
For colour development, the plate was washed 3× with PBS-T following which 100 μl of TMB substrate was added and incubated for approximately five minutes at room temperature. The reaction was stopped with 50 μl of 3.0 M hydrochloric acid and absorbance was read immediately using a Dynex plate reader at 450 nm.

Binder	relative IC50 (IC50 of the variant divided by IC50 of the Girentuximab chimeric IgG1 antibody on the same plate) [fold]
B1	≤ 2
B10	≤ 2
B11	≤ 2
B2	≤ 2
B12	≤ 2
B5	≤ 2
B13	≤ 2
B14	≤ 2

target: T1, human carbonic anhydrase IX (CAIX); assay: SPR (Biacore T200), multicycle kinetics; purified antibody captured on Protein G chip, CAIX as analyte
Experimental: as §1

Binder	relative KD (KD of the variant divided by KD of the chimeric antibody on the same chip) [fold]
B1	≤ 2
B10	≤ 2
B11	≤ 2
B2	≤ 2
B12	≤ 2
B5	≤ 2
B13	≤ 2
B14	≤ 2

target: T1, human carbonic anhydrase IX (CAIX); assay: SPR (Biacore T200), multicycle kinetics; purified CHO-expressed antibody captured on Protein G chip, CAIX as analyte
Experimental: as §1

Binder	relative KD (KD of the variant divided by KD of the chimeric antibody with the same IgG constant domain) [fold]
B1	≤ 2
B2	≤ 2
B3	≤ 2
B4	≤ 2
B5	≤ 2
B6	≤ 2
B7	≤ 2
B8	≤ 2
B9	≤ 2

target: T1, human carbonic anhydrase IX (CAIX); assay: SPR (Biacore T200), single cycle kinetics; antibody in HEK EBNA supernatant captured on Protein G chip, CAIX as analyte
Experimental: All single cycle kinetic experiments were run at 25° C. with HBS-P+ running buffer (pH 7.4) (GE Healthcare, Little Chalfont, UK). For direct comparison, all antibodies were captured on a Protein G chip (GE Healthcare, Uppsala, Sweden).
Antibodies were diluted in running buffer to a final concentration of 0.5 μg/ml, based on concentrations assessed by ELISA titre. At the start of each cycle, antibodies were loaded onto Fc2, Fc3 and Fc4 of the Protein G chip (GE Healthcare, Little Chalfont, UK). IgGs were captured at a flow rate of 10 μl/min to give an immobilisation level (RL) of ˜79 RU, the theoretical value to obtain an Rmax of ˜50 RU. The surface was then allowed to stabilise. Single cycle kinetic data was obtained with Carbonic Anhydrase IX (CAIX, Stratech, Newmarket, UK) as the analyte at a flow rate of 30 μl/min to minimise any potential mass transport limitations. […] The signal from the reference channel Fc1 (no antibody) was subtracted from that of Fc2, Fc3 and Fc4 to correct for differences in non-specific binding to a reference surface. […] The association phase for the four injections of increasing concentrations of CAIX was monitored for 200 seconds each time and a single dissociation phase was measured for 300 seconds following the last injection of CAIX. Regeneration of the Protein G surface was conducted using an injection of 10 mM glycine-HCL pH 1.5 followed by an injection of 10 mM glycine-HCL pH 1.5 containing 0.5% P20.

Binder	relative KD (against the reference chimeric VH0/Vκ0 IgG1) [fold]	binding result
B1	≤ 2	
B15	≤ 2	
B16	≤ 2	
B17	≤ 2	
B18	≤ 2	
B19		binds
B20	≤ 2	
B10	≤ 2	
B11	≤ 2	
B2	≤ 2	
B21		binds
B22	≤ 2	
B12	≤ 2	
B5	≤ 2	
B23		binds
B24		binds
B25		binds
B26		binds
B27		binds
B28		binds
